Source: patent US20260034194A1, “PHARMACEUTICAL COMPOSITIONS AND METHODS OF TREATING PSP” (priority 2022, published 2026)
Numbering of substitutions follows the chain as printed. Names and notes keep the numbering of the source. “Also recorded” adds a separate entry of the source.

B1: MaSxph: Mantella aurantiaca (Golden mantella) saxiphilin, SEQ ID NO: 3 (protein, listed as Mantella aurantiaca)
chain: MALTFQTALYFTIIGLSFVTSSARDVRWCVISDLEQKKCNDLVGSCKVSGITLVCVHRSSTENCMTAIRDEQADAMFLDSGDVYKASMSPYNLKPIIAESYSSHKECLKKRQEALGGANVLGQFVPQCDEKGSYQPQQCYGSTGHCWCVNAIGEEIVGTKTQPGQTQATCERHDQTKCLKDRQKALAKKMIGGFVPQCDEKGNFKPRQCHGSTGYCWCTNANGEKIAATNTPPQQSPPTCERHDLDSCHYAVAVVKKSSIFQFNQLKGKRSCHSGVSKTDGWKAPVSVLVDKNLLSWDRAAKESIEKAVSKFFSDSCIPGATETNLCNQCMGEGGKKCMSSHDEPYYGDHGAFRCLKEDKGDVAFLKNTVLSDTHSEDYELLCPDNTRKPLNKYKECNLGKVPADAVVTRKSGDKIKDINDFLLEAQKKHCQLFSSAHGKDLMFDDSTTQLSLLPPEVDVFFFLGVQWLNTMKTLTADVKPPSKNKVRWCTVNNLEKMKCDDWSAVSGGAIECTEASSPEHCIKQIVKGEADAVTLDVQYMYEALKCGLLPAVEEYHNKDDFGPCKTPGSEIKDFGAKRAVALVKKSNKDINWHNLKGKKSCHTGVGDQAGWIIPVGLISRQIDNCNIDSFFSESCAPGSDTTSNFCKLCIGDPSNPMANTKCSLSDKEAYHGNEGAIRCLVEKGDVAFVHHTAVFENTDGKNPAEWAANLKSEDFEILCLDGSRAPVSNYMTCRLSGVPPRAIVTREESVSDVVRILINQQSLFGRNGFEKDMFQMFSSNKGQNLLFNDGTQCLIEFDRQPRGIMEDYFGKPYYNAVYNTSKCVLPSELTSACTFKHC
B2: RiSxph: Ranitomeya imitator (Mimic poison frog) saxiphilin, SEQ ID NO: 6 (protein)
chain: MRRSSYAASQEMRMTLRVLLCLCLWALSSAAPNTRNVRWCVTSDTEEQKCNDLVTSCHVDEILLICVKKSSTEDCVRAISNGEADAISLDSKDVYKASLDPFNLKPIMTEAYSESEHTPCMRHRQSVLGGKIMKIGAFVPKCDEKGNYVPKQCHGSTGYCWCLNENGEEIEGTRTPPGNPGLTCENKANKPPCLKERQKLLSAKPSPAVFVPECDEKGNYRPQQSHVYSWCVDEYGEEVFGSRSFPGKPPKPCEASGETPCIKERNKVLSAAEPLLGAFVPDCDEKGYFSPLQSHGSTGYSWCVTKNGDEIKGTRTGPGQSPPTCEVPAPVTLHYAVAVVKKSSSFHLDQLKGKRSCHSAVGEAAGWVAPLNVLLKKKLLLWEEPEPKTIEKVASEIFSASCAPGAQEANLCEQCAGQEDKCTRGPGEPYYGDEGAFRCLREDKGDVAFVEDTALTGQYSDNFELLCPDNTRRPLSQYKICNFGRIPRHAVVTRSSGDKMKDITEYLLQAQKKECKLFSSTHGKDLLFEDTTSALIALPSAMDTFLFLGPDLFNGMKTLNGARPPQVNQQIRWCPQSKNEKKKCDDWSSVSGGAIKCTEPSSGLECIKMILKGEAEAVNLDIEHSYIALKCGLLPSVDEYRNKDDLIPCQIPGSEYSEFGSYRIVALVKKTDKDLTWNNLQGKKSCHTRAGDMIGWNIPVYLISKKTKNCDLGSYFSQSCAPGSPIDSNLCKLCIGDPQNPQANTKCSISDKEAYYGHEGAIRCLVEKGDVAFVPHTAIFENTDGKNPALWAKDLKSTDFELLCPDGSRAPVNDYKKCKLSGIANQIAITRPESVKDVVRIIQNQQSLYGRTGSQKDIFQMFSSSYGQNLLFSDRTQCLVEFDRMLDRDIMDDYFGKPFHKHLLRDNDCLPKSALASACSFHH
modifications: Ranitomeya imitator
B3: Q787E: RcSxph STX binding pocket mutant Q787E (protein)
chain: MAPTFQTALFFTIISLSFAAPNAKQVRWCAISDLEQKKCNDLVGSCNVPDITLVCVLRSSTEDCMTAIKDGQADAMFLDSGEVYEASKDPYNLKPIIAEPYSSNRDLQKCLKERQQALAKKMIGHYIPQCDEKGNYQPQQCHGSTGHCWCVNAMGEKISGTNTPPGQTRATCERHELPKCLKERQVALGGDEKVLGRFVPQCDEKGNYEPQQFHGSTGYSWCVNAIGEEIAGTKTPPGKIPATCQKHDLVTTCHYAVAMVKKSSAFQFNQLKGKRSCHSGVSKTDGWKALVTVLVEKKLLSWDGPAKESIQRAMSKFFSVSCIPGATQTNLCKQCKGEEGKNCKNSHDEPYYGNYGAFRCLKEDMGDVAFLRSTALSDEHSEVYELLCPDNTRKPLNKYKECNLGTVPAGTVVTRKISDKTEDINNFLMEAQKRQCKLFSSAHGKDLMFDDSTLQLALLSSEVDAFLYLGVKLFHAMKALTGDAHLPSKNKVRWCTINKLEKMKCDDWSAVSGGAIACTEASCPKGCVKQILKGEADAVKLEVQYMYEALMCGLLPAVEEYHNKDDFGPCKTPGSPYTDFGTLRAVALVKKSNKDINWNNIKGKKSCHTGVGDIAGWVIPVSLIRRQNDNSDIDSFFGESCAPGSDTKSNLCKLCIGDPKNSAANTKCSLSDKEAYYGNQGAFRCLVEKGDVAFVPHTVVFENTDGKNPAVWAKNLKSEDFELLCLDGSRAPVSNYKSCKLSGIPPPAIVTREESISDVVRIVANQQSLYGRKGFEKDMFQLFSSNKGNNLLFNDNTQCLITFDREPKDIMEDYFGKPYYTTVYGASRSAMSSELISACTIKHC
B4: I782A/Y558A: RcSxph STX binding pocket double mutant I782A/Y558A (protein)
chain: B3 chain with Y577A, I801A, E806Q
B5: Y558F: RcSxph STX binding pocket mutant Y558F (protein)
chain: B3 chain with Y577F, E806Q
B6: K789A: RcSxph STX binding pocket mutant K789A (protein)
chain: B3 chain with E806Q, K808A
B7: I782F: RcSxph STX binding pocket mutant I782F (protein)
chain: B3 chain with I801F, E806Q

Type: binding
Conditions: for STX/F-STX affinity compared with RcSxph / Kd: FP; for Kd: 1 nM F-STX, 25° C., errors S.D.; for ΔΔG: ΔΔG = RT ln(Kd mutant or XSxph/Kd RcSxph), T = 298K, FP with F-STX

| Molecule | STX/F-STX affinity compared with RcSxph | Kd | ΔΔG |
| --- | --- | --- | --- |
| B1 | enhanced affinity | 0.4 ± 0.1 nM | -1.73 kcal/mol |
| B2 | higher affinity for STX than RcSxph; also recorded: binds STX more strongly than RcSxph | 0.8 ± 0.3 nM | -1.32 kcal/mol |
| B3 |  | 6.4 ± 1.6 nM | -0.09 kcal/mol |
| B4 |  | 1.2 ± 0.2 nM | -1.07 kcal/mol |
| B5 |  | 6.3 ± 2.3 nM | -0.10 kcal/mol |
| B6 |  | 5.1 ± 1.7 nM | -0.22 kcal/mol |
| B7 |  | 16.1 ± 4.1 nM | 0.46 kcal/mol |
